In PMC12280208 (Nature Communications, 2025):

Target: MVP3-5 (MVP residues 102-274), wild type (human, UniProt Q14764 102-274)
Assay: SEC

MVP3-5 (MVP residues 102-274), wild type, sequence (Q14764 102-274): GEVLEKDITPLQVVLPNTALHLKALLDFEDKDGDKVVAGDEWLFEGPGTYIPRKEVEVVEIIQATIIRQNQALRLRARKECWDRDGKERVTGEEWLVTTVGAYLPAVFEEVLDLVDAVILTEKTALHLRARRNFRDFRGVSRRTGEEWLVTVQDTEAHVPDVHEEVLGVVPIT

B1: PARP4 MINT domain (residues 1562-1724), wild type (domain or fragment)
chain: VCIQHWQDAVPWTELLSLQTEDGFWKLTPELGLILNLNTNGLHSFLKQKGIQSLGVKGRECLLDLIATMLVLQFIRTRLEKEGIVFKSLMKMDDASISRNIPWAFEAIKQASEWVRRTEGQYPSICPRLELGNDWDSATKQLLGLQPISTVSPLHRVLHYSQG
B1: binds.
